Experimental data published in the supplement of paper PMC10724198.
± gives the standard deviation of the averaged measurements.

Tested on: Saccharomyces cerevisiae
Assay: protein stability index of tFT-peptide fusion (C-terminal peptide) (PSI (0-1 scale)); higher = more stable (slower turnover)
Settings: genetic background: wild type; temperature: 30 C
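Also: PSI is a weighted mean of sequencing reads over stability bins, variants kept only with over 10 reads, mCherry proximal and sfGFP distal, peptide attached via GGGS linker.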

Sequence | protein stability index
PPLRQLTIPLTH | 0.723 ± 0.0088
PPLSPPPLPAAP | 0.724 ± 0.03
PPLSPPPSASSS | 0.738 ± 0.065
PPLSSPPSLSPP | 0.703 ± 0.049
PPLTSSPPFSPP | 0.728 ± 0.09
PPLYPPPRDLPP | 0.5453 ± 0.0038
PPNPLHPPPSRP | 0.653 ± 0.044
PPNPPPNPPSRY | 0.738 ± 0.047
PPPALVPRPPPR | 0.679 ± 0.0084
PPPAPPCFAPFP | 0.673 ± 0.019
PPPAPPPLPTSP | 0.771 ± 0.095
PPPAPPPPHSLV | 0.717 ± 0.057
PPPDPPLHHNLP | 0.693 ± 0.036
PPPFPPPSFASR | 0.696 ± 0.057
PPPFPYRTALLP | 0.708 ± 0.016
PPPGAPAPPPSS | 0.692 ± 0.12
PPPGCRPSPPLP | 0.683 ± 0.069
PPPGLPPPLPPS | 0.767 ± 0.015
PPPGRRRLRGPT | 0.705 ± 0.04
PPPHPPPPASPP | 0.653 ± 0.034
PPPHPSPSRRSS | 0.681 ± 0.029

Sequence | protein stability index
PPPHVPPPPSSL | 0.711 ± 0.023
PPPIYTPPPPPL | 0.697 ± 0.053
PPPKRTPTPQCP | 0.702 ± 0.078
PPPLAPPTSLRF | 0.715 ± 0.075
PPPLFPPSSLLP | 0.706 ± 0.033
PPPLLSAPPHCE | 0.684 ± 0.052
PPPLPLLPSSPL | 0.685 ± 0.013
PPPLPLPSPPPS | 0.664 ± 0.08
PPPLPPAPPSPP | 0.703 ± 0.19
PPPLPPLPPPTL | 0.698 ± 0.045
PPPLPPPLILTP | 0.643 ± 0.054
PPPLPPPPAPPY | 0.734 ± 0.018
PPPLPPPPASPP | 0.685 ± 0.01
PPPLPPPTPLSP | 0.5736 ± 0.0043
PPPLPPQTLTFC | 0.729 ± 0.075
PPPLPSAPPTGT | 0.706 ± 0.026
PPPLPSPPPRLP | 0.693 ± 0.014
PPPLRFLSFPPS | 0.661 ± 0.057
PPPLRPPPPPLP | 0.645 ± 0.021
PPPLSCPSRPSL | 0.526 ± 0.12
PPPLSFPSVYLT | 0.75 ± 0.12

Sequence | protein stability index
PPPLSPSFIPPP | 0.698 ± 0.042
PPPLTPPTCLPP | 0.644 ± 0.013
PPPMSVAVFPFG | 0.678 ± 0.03
PPPNSPPRPPLS | 0.7035 ± 0.0046
PPPPALIHSRPP | 0.7406 ± 0.0045
PPPPARSPLTPL | 0.725 ± 0.15
PPPPDLPYPLPL | 0.754 ± 0.025
PPPPFLPVLLFP | 0.696 ± 0.08
PPPPFPPPPPHS | 0.719 ± 0.039
PPPPGPPPPSSL | 0.6914 ± 0.006
PPPPLCPPPLSF | 0.638 ± 0.016
PPPPLPAPLSPA | 0.651 ± 0.021
PPPPLRPHHLTS | 0.696 ± 0.021
PPPPLRSPPRSF | 0.713 ± 0.02
PPPPLSPPPAPA | 0.682 ± 0.048
PPPPPAPLLLLP | 0.78 ± 0.1
PPPPPAPPPVSI | 0.659 ± 0.071
PPPPPASTPASS | 0.6808 ± 0.0013
PPPPPHALSPPP | 0.664 ± 0.011
PPPPPHTSPSPT | 0.744 ± 0.042
PPPPPLGPLPAL | 0.688 ± 0.012

Sequence | protein stability index
PPPPPLLPPPPA | 0.721 ± 0.02
PPPPPLLPPSLR | 0.671 ± 0.073
PPPPPLPALPHL | 0.627 ± 0.023
PPPPPLPHPVPP | 0.6206 ± 0.005
PPPPPLPPPPSP | 0.656 ± 0.052
PPPPPLPPPTPP | 0.568 ± 0.024
PPPPPLPRALST | 0.72 ± 0.044
PPPPPLQRFPPF | 0.644 ± 0.046
PPPPPLSLPPPA | 0.693 ± 0.024
PPPPPLSPPPRP | 0.68631 ± 0.00031
PPPPPLSSPPSP | 0.652 ± 0.049
PPPPPPAASSSP | 0.692 ± 0.047
PPPPPPFLPRLP | 0.721 ± 0.14
PPPPPPFPSSPP | 0.698 ± 0.013
PPPPPPLSPPSP | 0.659 ± 0.012
PPPPPPPPAPPS | 0.68 ± 0.035
PPPPPPPPPCHL | 0.644 ± 0.078
PPPPPPPPPDPA | 0.666 ± 0.013
